The values that follow come from article PMC11667970, “Mycobacterium tuberculosis Mce3R TetR-like Repressor Forms an Asymmetric Four-Helix Bundle and Binds a Nonpalindrome Sequence†” (ACS Chemical Biology, 2024).

Values joined by “and” are separate entries in the source; they are usually repeats but may differ in a detail not shown here. Identical values can stand only once.

In data set [1] the target is T1, Mce3R R53A (Mycobacterium tuberculosis H37Rv, UniProt P95251 1-406, R53A).
T1 sequence: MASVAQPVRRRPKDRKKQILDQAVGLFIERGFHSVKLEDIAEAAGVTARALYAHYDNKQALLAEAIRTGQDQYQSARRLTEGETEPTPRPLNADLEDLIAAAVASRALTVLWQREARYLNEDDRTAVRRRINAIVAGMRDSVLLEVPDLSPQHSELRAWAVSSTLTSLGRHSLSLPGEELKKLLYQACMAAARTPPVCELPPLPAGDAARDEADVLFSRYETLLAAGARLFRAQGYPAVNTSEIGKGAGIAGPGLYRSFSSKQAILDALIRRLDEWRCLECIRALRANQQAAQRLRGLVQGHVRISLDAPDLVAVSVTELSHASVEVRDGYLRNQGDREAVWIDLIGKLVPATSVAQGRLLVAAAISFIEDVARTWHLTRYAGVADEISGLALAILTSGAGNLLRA
The experiment in a line: EMSA; 0-128 nM; high-affinity binding lost. The conditions noted are these: protein: recombinant; tags: MBP-His6 N-terminal, removed with TEV (same protocol as WT); chain copies: 2; label: 5'-Cy3 (forward strand); blunt.

Data set [2] concerns the molecule itself. Kind of data set: SEC; M1 on Superdex 200 HiLoad 16:60, Buffer E (20 mM Tris-HCl pH 7.5, 0.2 M NaCl); two peaks (Figure S1B). (In general: SEC sorts molecules by how far they enter the pores of the column.)
Data set [3] deals with the molecule itself. The experiment in a line: SEC.

A word on the stoichiometry N: it is the number of molecules, sites or subunits per partner or assembly.

B1: Probe A (dsDNA)
DNA 1: GCCCCGCGCTATAGGATACTAGCAAGATACATCATAGCCAATATATGCCAGTTTGCATTGCTATTTACCGATCAGTTGTCCAAGCAATCGCGTATTGGCTATGGACATCAGCGGTTCTGCCGC
DNA 2: GCGGCAGAACCGCTGATGTCCATAGCCAATACGCGATTGCTTGGACAACTGATCGGTAAATAGCAATGCAAACTGGCATATATTGGCTATGATGTATCTTGCTAGTATCCTATAGCGCGGGGC
As to B1, the binding result in data set [1] is “no binding”.

B2: M1, N-terminal TFR segment of Mce3R (amino acids 13-193) (domain or fragment)
chain: KDRKKQILDQAVGLFIERGFHSVKLEDIAEAAGVTARALYRHYDNKQALLAEAIRTGQDQYQSARRLTEGETEPTPRPLNADLEDLIAAAVASRALTVLWQREARYLNEDDRTAVRRRINAIVAGMRDSVLLEVPDLSPQHSELRAWAVSSTLTSLGRHSLSLPGEELKKLLYQACMAAAR
notes: Mce3R (Rv1963c), Mycobacterium tuberculosis H37Rv, amino acids 13-193 (M1); calculated monomer MW 20.2 kDa; also called M1 homotetramer; M1 homodimer
In the case of B2, the “stoichiometry N” value in data set [2] is 4 and 2.

B3: Mce3R R53A variant (natural protein)
chain: T1 sequence
notes: not shown: MBP, N-terminal, cleaved; His6, N-terminal, cleaved
As to B3, the “stoichiometry N” value in data set [3] was 2 and 4.
